Measurements as given in patent publication US8444963B2 (priority 2006, dated 2013).
Where a chain is given by its changes, count along the chain named. Numbers in names are those of the source.

Columns and labels:
[1] = tested on: syngeneic CT26 colorectal tumors; assay: CT26 tumors in BALB/c mice treated with C. novyi-NT spores and free or liposomal drugs; format: in vivo, mouse; details: 300 million spores i.v., drug 10 mg/kg single i.v. dose 16 h later
Experimental: Animal models. […] Tumor volume was calculated as length×width^2×0.5.

[2] = Lipase assay of E. coli lysates; format: biochemical; details: lysates of IPTG-induced E. coli clones
Excerpt: FIG. 4A-4D. Functional analysis of liposomase. Plasmids carrying the wt or mutant forms of the NT01CX2047 gene were introduced into E. coli. “Cured” bacteria represent those originally containing the wt gene and grown in the absence of selective antibiotics until the plasmid was lost. Cellular lysates from three independent clones of each bacterial strain were generated after induction of expression by IPTG and used for the following: (FIG. 4A) Western blotting with an antibody to oligohistidine confirmed the presence of similar amounts of wt and mutant proteins in the bacteria. (FIG. 4B) Lipase activity was analyzed using the fluorescent lipase substrate, 1,2-dioleoyl-3-pyrenedecanoyl-rac-glycerol. (FIG. 4C) Liposome-disrupting activity was assessed using Doxil. (FIG. 4D) Liposome-disrupting activity of lipases purified from ten different organisms were assessed using Doxil. Means and standard deviations of data from at least two independent experiments are shown in (FIG. 4B) to (FIG. 4D).
Protein Expression. […]
Lipase Assay. […] Increase in fluorescence caused by catalytic release of pyrenedecanoic acid was kinetically measured over 2 hours using excitation at 320 nm and emission at 405 nm. All measurements were performed at 37° C. in a FluoStar Galaxy fluorescence plate reader. […]

[3] = Liposome-disruption assay (doxorubicin release from Doxil); format: biochemical; details: lysates of IPTG-induced E. coli incubated with liposomal doxorubicin
Experimental: Liposome-Disruption Assay. Samples were mixed with DOXIL™ liposomal doxorubicin (100 μl sample+5 μl DOXIL™ liposomal doxorubicin in a 96-well plate or 50 μl sample+2 μl DOXIL™ in a 384-well plate). Increase in fluorescence caused by the dequenching of released doxorubicin was kinetically measured over 30-60 minutes using excitation at 470 nm and emission at 590 nm (5). All measurements were performed at 37° C. in a fluorescence plate reader. Liposome-disrupting activity was defined as the maximum slope of the release curve.
Lipase Panel Experiment. Purified NT01CX2047 enzyme and nine other purified lipases were dissolved in 100 mM Tris-HCl, pH 7.5 to a concentration of 1 mg/ml. Fifty μl of Assay Buffer (100 mM Tris-HCl pH 7.5+0.125M NaCl) was pipetted into 384-well plates, followed by 2 μl of the relevant lipase and 1 μl of DOXIL. Samples were assayed in duplicate for liposome-disrupting activity as described above.
To test the liposome-disrupting activity of the lysates described above, we incubated them with liposomal doxorubicin. […] When this strain was cultured without selective antibiotics until the bacteria lost the expression vector by random segregation, the liposome-disrupting activity was lost (FIG. 4C). Moreover, the cells that had lost the plasmid were able to grow as robustly as the parental E. coli and the S127X mutant.

E. coli = assay: Growth of E. coli expressing NT01CX2047 forms after IPTG induction; format: cell-based; details: after induction by IPTG
Experimental: Protein Expression. The expression vectors described above were transformed by heat shock into the Rosetta-gami(DE3)pLysS strain of E. coli (Novagen, Madison, Wis.). Three clones per expression construct were picked and each was cultured in 20 ml HyperBroth (AthenaES, Baltimore, Md.) under antibiotic selection (100 μg/ml ampicillin+34 μg/ml chloramphenicol) at room temperature. As a negative control, bacteria carrying the pLip plasmid were “cured” of their plasmid through growth in the absence of selective antibiotics. Loss of plasmid was verified by PCR. Expression was induced using IPTG for 1 hour, reaching an OD600˜0.2, after which the bacteria were pelleted by centrifugation and resuspended in 100 mM Tris-HCl, pH 7.5. Lysates were prepared by sonication in a Bioruptor sonicating bath (Diagenode, Belgium) and centrifugation at ˜14,000 g was performed to remove insoluble matter. […]
To examine the properties of the protein encoded by NT01CX2047, we cloned its ORF into an inducible expression vector which was then introduced into a genetically modified E. coli strain that permitted expression of C. novyi-NT genes (which have a codon usage very different than that of E. coli). […] Lysates from these cells were tested for lipase activity as measured by hydrolysis of 1,2-dioleoyl-3-pyrenedecanoyl-rac-glycerol. […]

In the case of `COc1cccc2c1C(=O)c1c(O)c3c(c(O)c1C2=O)C[C@@](O)(C(=O)CO)C[C@@H]3O[C@H]1C[C@H](N)[C@H](O)[C@H](C)O1` [doxorubicin], the “tumor response (tumor volume)” value [1] is reported as “Neither doxorubicin nor Doxil alone resulted in prolonged therapeutic effects”.

B1: NT01CX2047: C. novyi-NT extracellular lipase, the liposome-disrupting factor (SEQ ID NO: 1), expressed in E. coli with oligohistidine tag (protein, listed as Clostridium novyi)
chain: MQSKLKKFISTISVSLFTLASVLTFSMAKPVNAFAKENQKVSQNNYPIILCHGCNGWGRTENFGTVAFGARYYWGGNVDLQQKLIENGFTTYTAAVGPLSSNWDRACELYAQIKGGRVDYGEAHAKKHGHSRYGRYYRGFYPEWGTKDENGNIRKVHLIGHSQGGQTIRMLTTLLGQGKQEEISATGENTNELFKGGHDWVSGLITLASPHDGTTLADMKGTDAAAAIGIGAVGSMLGNISNSDIIFDLKVDQWGLKRKPSESFISYFNRCATSKMWNSKDICSVDLSTNGAVEQNKWVKAQPNVYYFSWACCGTIRNPISIFGHHMASPIRMSDKGLYNVQWALQAQLMGTYSRNNPRRAIPVIDSKWWPNDGYVNTISENGPKAGSTDEIVNYNGTPQIGKWNFMGVKDMDHEDIIGRHWNGAPNFFIDMAQMLRNLPVTE
modifications: oligohistidine tag
With B1 the lipase activity [2] was “exhibited lipase activity”, the liposome-disrupting activity [3] was “potent activity” and the “growth of the expressing E. coli cells (apparent toxicity of gene product)” value (E. coli) was “grew poorly”.

B2: S127G (protein, listed as Clostridium novyi)
chain: B1 chain with S162G
With B2 the lipase activity [2] was “devoid of lipase activity”, the liposome-disrupting activity [3] was “retained substantial liposome-disrupting activity” and the “growth of the expressing E. coli cells (apparent toxicity of gene product)” value (E. coli) was “same poor growth as wild-type NT01CX2047”.
